Biological target: T1, E. coli-produced 6X histidine-tagged cyclin D1 (UniProt P24385 1-295, limits assumed)
T1 construct: also called His-cyclin D1; His-D1; not shown: 6X histidine tag
Assay: GST pull-down on glutathione-agarose, anti-cyclin D1 Western blot
Protocol: To ask which domain or motif of SRC-1 is involved in cyclin D1 binding, we generated a series a GST-SRC1 deletion mutants. […] In the in vitro binding assay, the series of GST-containing proteins were incubated with bacterially expressed His-tagged cyclin D1 and immobilized on glutathione-agarose. Cyclin D1 binding was detected by Western blot analysis using anti-cyclin D1 antibody. Binding was not detected to GST alone.

T1 sequence (P24385 whole entry): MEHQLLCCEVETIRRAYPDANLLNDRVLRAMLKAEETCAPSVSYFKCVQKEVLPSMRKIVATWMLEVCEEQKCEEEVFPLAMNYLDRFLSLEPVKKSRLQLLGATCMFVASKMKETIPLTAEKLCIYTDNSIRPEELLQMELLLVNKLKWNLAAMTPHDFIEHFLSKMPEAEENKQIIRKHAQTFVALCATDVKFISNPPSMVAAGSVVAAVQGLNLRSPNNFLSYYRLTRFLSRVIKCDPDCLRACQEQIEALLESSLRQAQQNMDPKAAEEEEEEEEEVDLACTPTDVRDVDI

B1: GST-SRC1 361-568 (other, human, UniProt Q15788 361-568, looked up)
chain: IHIIDREHSGLSPQDDTNSGMSIPRVNPSVNPSISPAHGVARSSTLPPSNSNMVSTRINRQQSSDLHSSSHSNSSNSQGSFGCSPGSQIVANVALNQGQASSQSSNPSLNLNNSPMEGTGISLAQFMSPRRQVTSGLATRPRMPNNSFPPNISTLSSPVGMTSSACNNNNRSYSNIPVTSLQGMNEGPNNSVGFSASSPVLRQMSSQN
notes: not shown: glutathione-S-transferase (GST) fusion partner
B1: no binding.
